{"source": "paper PMC4070910", "about": "“Cathepsin S Signals via PAR2 and Generates a Novel Tethered Ligand Receptor Agonist” (PLoS ONE, 2014)", "key": {"human PAR2": {"test_system": "human PAR2", "assay": "IP1 (IP-One HTRF) assay in PAR2-transfected HeLa cells", "assay_type": "cell-based", "settings": "1 hour, 37°C, KVDGTS 100 µM, SLIGRL 10 µM, cathepsin S 1 µM", "procedure": "To determine the effect of PAR2 activation on Gq stimulation, we measured IP1, a downstream metabolite of IP3, using the IP-One HTRF assay from Cis Bio, Medford, MA. HeLa cells were transfected with salmon sperm DNA or PAR2 cDNA as described above, plated in 10 cm culture dishes and incubated at 37°C with 5% CO2. After 24 hours, the cells were trypsinized, counted, plated into 96-well plates at 80,000 cells/well and incubated for another 24 hours. The medium was replaced with a stimulation buffer containing LiCl, per the instructions of the manufacturer. Ligands, including cathepsin S (1 µM), KVDGTS (100 µM) and SLIGRL (10 µM) were added to wells and incubated at 37°C for 1 hour and IP1 levels determined. This assay was performed on multiple wells containing each ligand on three occasions. Error bars represent SEM."}, "[1]": {"settings": "cited from earlier work", "description": "To better understand the mechanisms of PAR2 activation and regulation, we sought to identify cleavage sites and downstream signaling events induced by an endogenous cysteine protease, cathepsin S. Cysteine cathepsins, including cathepsin S, have been broadly implicated in health and disease including inflammation, cardiovascular and pulmonary disease, obsesity, itch and pain[15]. […] Cathepsin S is expressed in many types of cells. […] The KVDGTS sequence is preceded by LIG, placing G^40 in the P1 postion and L^38 in the P3 postion. The finding of cleavage after glycine is consistent with what is reported in the MEROPS database and a recent report on proteomic identification of protease cleavage sites (PICS)[25]. These reports reveal that cleavage after leucine at P3 is associated with cathepsin S, but less so than with glycine at P1. Correlations were otherwise weak between these reports and the cleavage sites identified here. Cathep ..."}, "cathepsin S": {"test_system": "cathepsin S", "assay": "Cathepsin S digestion of the human PAR2 N-terminal peptide (LC/MS/MS)", "assay_type": "biochemical", "settings": "cathepsin S 1 µM, pH 7.0, 37°C, 20 minutes; MS/MS sequencing", "procedure": "Recombinant human cathepsin S was produced as follows. The human cathepsin S proprotein coding region was isolated by PCR using the forward and reverse primers […] CCTG and […] and a template of plasmid DNA containing the entire coding sequence of human cathepsin S. The PCR product was cut with Nco I and Xho I, and cloned into the pTYB4 expression vector from New England Biolabs for expression in E.coli. Cells were grown in LB medium induced with 0.3 mM IPTG, harvested by centrifugation, resuspended in lysis buffer A (0.5 M NaCl, 0.05 M Tris, 5 mM EDTA, pH 8.0) and lysed in a French press. The lysate was centrifuged and the protein was found predominantly in inclusion bodies which were dissolved in buffer B (10 mM DTT and 8 M urea), and refolded in the presence of buffer B containing 0.7 M L-arginine, 0.01 M glutathione, 0.001 M glutathione disulfide, and 0.005 M EDTA as described. […] The specific activity of cathepsin S was assayed using Z-VVR-AMC in fluorimetric and Z-FR-pNA in colorimetric assays[22] and determined to be 10,000 mU/mg protein.\nA peptide comprising the N-terminus of PAR2, […], was dissolved in 50 mM Tris, pH 7.0, 0.1 M NaCl, 0.1 mM EDTA, and 0.01% Tween-20 to a concentration of 100 mM. […] The reaction samples were analyzed by the Harvard Microchemistry & Proteomics Analysis Facility (Cambridge, MA). […]"}, "[2]": {"test_system": "luciferase-PAR2 and PAR2 mutants", "assay": "Western blot for Gaussia luciferase in supernatants", "assay_type": "cell-based, human", "settings": "luciferase-PAR2, PAR2M1, PAR2M2, PAR2M3; cathepsin S 2 µM", "procedure": "HeLa cells were transfected and treated with cathepsin S as described for the luciferase assay. After treatment with cathepsin S, cells were pelleted at 14,000 rpm for 3 minutes. Supernatants (100 µl) were collected and denatured with 1 µl of 10% SDS. Equal volumes of supernatants were prepared in loading buffer, heated at 90°C for 5 minutes, run on NuPAGE Novex Bis-Tris mini gels and transferred to nitrocellulose membranes using standard protocols. The blot was probed with a primary rabbit anti-Gaussia luciferase antibody. HRP-conjugated donkey anti-rabbit antibody was used to identify the relevant bands on the membrane."}}, "note": "Entries after “also recorded” stand apart in the source; their conditions may differ."}
{"molecule": "cathepsin S: Recombinant human cathepsin S, cysteine protease, expressed in E.coli, refolded and activated (protein, UniProt P25774 115-331, looked up) Cathepsin S: LPDSVDWREKGCVTEVKYQGSCGACWAFSAVGALEAQLKLKTGKLVSLSAQNLVDCSTEKYGNKGCNGGFMTTAFQYIIDNKGIDSDASYPYKAMDQKCQYDSKYRAATCSKYTELPYGREDVLKEAVANKGPVSVGVDARHPSFFLYRSGVYYEPSCTQNVNHGVLVVGYGDLNGKEYWLVKNSWGHNFGEEGYIRMARNKGNHCGIASFPSYPEI", "values": [{"measurement": "IP1 level", "setting": "human PAR2; KVDGTS and SLIGRL after subtracting baseline values, cathepsin S 'in this particular experiment'", "result": 122, "unit": "nM"}, {"measurement": "IP1 generation (in words)", "setting": "human PAR2; three occasions", "result": "consistently generated higher levels of IP1 than either SLIGRL or KVDGTS"}, {"measurement": "cleavage after alanine (in words)", "setting": "[1]; PICS report", "result": "rarely cleaves after alanine"}, {"measurement": "elastase activity and Ii chain cleavage (in words)", "setting": "[1]", "result": "potent elastase; also recorded: cleaves the Ii chain"}, {"measurement": "pH dependence of activity (in words)", "setting": "[1]", "result": "active at neutral pH"}, {"measurement": "cleavage points (in words)", "setting": "cathepsin S", "result": "resulted in several cleavage points; also recorded: most frequent after glycine followed by leucine"}, {"measurement": "receptor cleavage, anti-luciferase western blot (in words)", "setting": "[2]", "result": "confirmed the results of the luminescence assay"}]}
